Results published in US20140031283A1, “ANTICANCER FUSION PROTEIN” (ADAMED SP. Z O.O., priority 2011, published 2014).
Values joined by “and” are separate entries in the source; they are usually repeats but may differ in a detail not shown here. Equal values may be shown once.

B1: Ex. 23: fusion protein: 13-amino acid inhibitor of RasGAP-Aurora B interactions with 8 arginine residues at N-terminus of TRAIL121-281, uPA and MMP sites (protein)
chain: KWVVSHARLMYSFRRRRRRRRRVVRPLGLAGCRVAAHITGTRGRSNTLSSPNSKNEKALGRKINSWESSRSGHSFLSNLHLRNGELVIHEKGFYYIYSQTYFRFQEEIKENTKNDKQMVQYIYKYTSYPDPILLMKSARNSCWSKDAEYGLYSIYQGGIFELKENDRIFVSVTNEHLIDMDHEASFFGAFLVG
modifications: synthesized, a fusion protein comprising: a fragment of TRAIL protein, a peptide acting as an inhibitor of interactions RasGAP - Aurora B, cleavage sites recognized by uPA and MMP, an arginine transporting domain and a cysteine stabilizing residue.
B2: Ex. 3: fusion protein: 8-amino acid fragment of human fetoprotein at C-terminus of TRAIL121-281, MMP and uPA cleavage sites (protein)
chain: RVAAHITGTRGRSNTLSSPNSKNEKALGRKINSWESSRSGHSFLSNLHLRNGELVIHEKGFYYIYSQTYFRFQEEIKENTKNDKQMVQYIYKYTSYPDPILLMKSARNSCWSKDAEYGLYSIYQGGIFELKENDRIFVSVTNEHLIDMDHEASFFGAFLVGPLGLAGRVVREMTPVNPG
modifications: synthesized, a fusion protein comprising: a fragment of TRAIL protein, a fragment of human fetoprotein and cleavage sites recognized by uPA and MMP.
notes: fusion protein: 8-amino acid fragment of human fetoprotein at C-terminus of TRAIL121-281, MMP and uPA cleavage sites

Key:
PLC/PRF/5 = experiment: MTT cytotoxicity test, PLC/PRF/5 (human liver hepatoma); assay type: cell-based; conditions: Table 4, mean/SD part
Description: (§1) MTT assay is a colorimetric assay used to measure proliferation, viability and cytotoxicity of cells. It consists in decomposition of a yellow tetrazolium salt MTT (4,5-dimethyl-2-thiazolyl)-2,5-diphenyltetrazolium bromide) to the water-insoluble purple dye formazan by mitochondrial enzyme succinate-tetrazolium reductase 1. MTT reduction occurs only in living cells. Data analysis consists in determining IC50 concentration of the protein (in ng/ml), at which the 50% reduction in the number of cells occurs in the population treated compared to control cells. Results were analyzed using GraphPad Prism 5.0 software. The test was performed according to the literature descriptions (Cells, J E, (1998). Cell Biology, a Laboratory Handbook, second edition, Academic Press, San Diego; Yang, Y., Koh, L W, Tsai, J H., (2004); Involvement of viral and chemical factors with oral cancer in Taiwan, Jpn J Clin Oncol, 34 (4), 176-183). Cell culture medium was diluted to a defined density (10^4-10^5 cells per 100 μl). Then 100 μl of appropriately diluted cell suspension was applied to a 96-well plate in triplicates. […] After stirring, the absorbance was measured at 570 nm (reference filter 690 nm). […]

Panc-1 = experiment: MTT cytotoxicity test, Panc-1 (human pancreatic cancer); assay type: cell-based; conditions: Table 4, mean/SD part
Description: as §1

MES-SA/Dx5 = experiment: MTT cytotoxicity test, MES-SA/Dx5 (multidrug-resistant human uterine sarcoma); assay type: cell-based
Description: (§2) MTT assay is a colorimetric assay used to measure proliferation, viability and cytotoxicity of cells. It consists in decomposition of a yellow tetrazolium salt MTT (4,5-dimethyl-2-thiazolyl)-2,5-diphenyltetrazolium bromide) to the water-insoluble purple dye formazan by mitochondrial enzyme succinate-tetrazolium reductase 1. MTT reduction occurs only in living cells. Data analysis consists in determining IC50 concentration of the protein (in ng/ml), at which the 50% reduction in the number of cells occurs in the population treated compared to control cells. Results were analyzed using GraphPad Prism 5.0 software. The test was performed according to the literature descriptions (Cells, J E, (1998). Cell Biology, a Laboratory Handbook, second edition, Academic Press, San Diego; Yang, Y., Koh, L W, Tsai, J H., (2004); Involvement of viral and chemical factors with oral cancer in Taiwan, Jpn J Clin Oncol, 34 (4), 176-183). Cell culture medium was diluted to a defined density (10^4-10^5 cells per 100 μl). Then 100 μl of appropriately diluted cell suspension was applied to a 96-well plate in triplicates. Thus prepared cells were incubated for 24 h at 37° C. in 5% or 10% CO2, depending on the medium used, and then to the cells (in 100 μl of medium) further 100 μl of the medium containing various concentrations of tested proteins were added. In the case of combination hTRAIL114-281 and p21WAF effector protein, 100 μl of the medium containing mixture of hTRAIL114-281 and p21WAF effector protein in molar ratio 1:1 was added. After incubation of the cells with tested proteins over the period of next 72 hours, which is equivalent to 3-4 times of cell division, the medium with the test protein was added with […] of MTT working solution [5 mg/ml], and incubation was continued for 3 h at 37° C. in 5% CO2. Then the medium with MTT solution was removed, and formazan crystals were dissolved by adding 100 μl of DMSO. After stirring, the absorbance was measured at 570 nm (reference filter 690 nm).
(§3) The results of in vitro cytotoxicity tests are summarized as IC50 values (ng/ml), which corresponds to the protein concentration at which the cytotoxic effect of fusion proteins is observed at the level of 50% with respect to control cells treated only with solvent. Each experiment represents the average value of at least two independent experiments performed in triplicates. As a criterion of lack of activity of protein preparations the IC50 limit of 2000 ng/ml was adopted.
Cells selected for this test included tumor cell lines that are naturally resistant to TRAIL protein (the criterion of natural resistance to TRAIL: IC50 for TRAIL protein >2000), as well as tumor cell lines sensitive to TRAIL protein and resistant to doxorubicin line MES-SA/DX5 as a cancer line resistant to conventional anticancer medicaments.

MES-SA = experiment: MTT cytotoxicity test, MES-SA (human uterine sarcoma); assay type: cell-based
Description: as §2, §3

SW620 = experiment: MTT cytotoxicity test, SW620 (human colorectal cancer); assay type: cell-based; conditions: Table 4, mean/SD part
Description: as §1

NCI-H460 = conditions: Table 4, mean/SD part
Description: Data analysis consists in determining IC50 concentration of the protein (in ng/ml), at which the 50% reduction in the number of cells occurs in the population treated compared to control cells. Results were analyzed using GraphPad Prism 5.0 software. […] Cell culture medium was diluted to a defined density (10^4-10^5 cells per 100 μl). Then 100 μl of appropriately diluted cell suspension was applied to a 96-well plate in triplicates. Thus prepared cells were incubated for 24 h at 37° C. in 5% or 10% CO2, depending on the medium used, and then to the cells (in 100 μl of medium) further 100 μl of the medium containing various concentrations of tested proteins were added. […] After incubation of the cells with tested proteins over the period of next 72 hours, which is equivalent to 3-4 times of cell division, the medium with the test protein was added with 20 ml of MTT working solution [5 mg/ml], and incubation was continued for 3 h at 37° C. in 5% CO2. Then the medium with MTT solution was removed, and formazan crystals were dissolved by adding 100 μl of DMSO. After stirring, the absorbance was measured at 570 nm (reference filter 690 nm).

HepG2 = experiment: MTT cytotoxicity test, HepG2 (human liver hepatoma); assay type: cell-based; conditions: Table 4, mean/SD part
Description: as §1

A549 = experiment: MTT cytotoxicity test, A549 (human lung cancer); assay type: cell-based
Description: as §2, §3

MCF10A = experiment: MTT cytotoxicity test, MCF10A (mammary epithelial cells); assay type: cell-based
Description: as §2, §3

SK-MES-1 = experiment: MTT cytotoxicity test, SK-MES-1 (human lung cancer); assay type: cell-based
Description: as §2, §3

UM-UC-3 = experiment: MTT cytotoxicity test, UM-UC-3 (human bladder cancer); assay type: cell-based; conditions: Table 4, mean/SD part
Description: as §1

MDA-MB-231 = experiment: MTT cytotoxicity test, MDA-MB-231 (human breast cancer); assay type: cell-based; conditions: Table 4, mean/SD part
Description: as §1

NIH: OVCAR-3 = experiment: MTT cytotoxicity test, NIH: OVCAR-3 (human ovarian cancer); assay type: cell-based; conditions: Table 4, mean/SD part
Description: as §1

[1] = continuous incubation over 72 h, test MTT

Molecule	PLC/PRF/5 mean (IC50) (PLC/PRF/5)	PANC-1 mean (IC50) (Panc-1)	MES-SA/Dx5 IC50 (MES-SA/Dx5; [1])	MES-SA IC50 (MES-SA; [1])	SW620 mean (IC50) (SW620)	NCI-H460 mean (IC50) (NCI-H460)	HepG2 mean (IC50) (HepG2)	HCT116 IC50 (HCT-116; [1])	A549 mean (IC50) (A549; Table 4, mean/SD part, listed as Ex. 23^a)	A549 IC50 (A549; [1])	MCF10A mean (IC50) (MCF10A; Table 4, mean/SD part)	MCF10A IC50 (MCF10A; [1])	SK-MES-1 IC50 (SK-MES-1; [1])	UM-UC-3 mean (IC50) (UM-UC-3)	MDA-MB-231 mean (IC50) (MDA-MB-231)	OVCAR-3 mean (IC50) (NIH: OVCAR-3)	MES-SA/Dx5 mean (IC50) (MES-SA/Dx5; Table 4, mean/SD part)	MES-SA mean (IC50) (MES-SA; Table 4, mean/SD part)	HCT116 mean (IC50) (HCT-116; Table 4, mean/SD part)	SK-MES-1 mean (IC50) (SK-MES-1; Table 4, mean/SD part)
B1	0.006821 µg/mL	0.0229 µg/mL	0.00013 µg/mL	0.00061 µg/mL	0.01192 µg/mL	0.00711 µg/mL	0.01049 µg/mL	0.00148 µg/mL	0.2784 µg/mL and 0.3589 µg/mL	0.2387 µg/mL	0.005196 µg/mL	0.00598 µg/mL	0.00042 µg/mL	–	–	–	–	–	–	–
B2	–	–	–	–	–	–	–	–	–	–	–	–	–	0.0204 µg/mL	0.02086 µg/mL	0.02751 µg/mL	0.03431 µg/mL	0.03618 µg/mL	0.041 µg/mL	0.007755 µg/mL
